The record followed here is publication PMC7672459, “Detection of genomic G-quadruplexes in living cells using a small artificial protein”.

Data set [1] addresses T1, G4P (artificial (RHAU-derived), UniProt Q9H2U1 53-75).
T1 chain: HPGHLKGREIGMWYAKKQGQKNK
As to the kind of experiment: EMSA; K+; only 20% of DNA bound at saturation; low-nM Kd, number only in figure; EMSA: 20 mM Tris-HCl pH 7.4, 75 mM KCl, 1 mM EDTA, 0.4 mg/ml BSA, 10 nM DNA, 4 C (or 37 C), 1 h; dsDNA with 30% PEG 200; pull-down: 20 mM Tris-HCl pH 7.4, 150 mM KCl, 1 mM EDTA, 0.5% Triton X-100, 4 C. To be noted: protein: recombinant, tags: N-terminal HIS, C-terminal GTGSGA-3xFLAG, label: 5' FAM. For orientation: A gel shift assay detects complexes by their altered migration in electrophoresis.

In data set [2] the target is T1, G4P. Briefly: competition; competitor of FAM c-KIT/KRAS G4; EMSA: 20 mM Tris-HCl pH 7.4, 75 mM KCl, 1 mM EDTA, 0.4 mg/ml BSA, 10 nM DNA, 4 C (or 37 C), 1 h; dsDNA with 30% PEG 200; pull-down: 20 mM Tris-HCl pH 7.4, 150 mM KCl, 1 mM EDTA, 0.5% Triton X-100, 4 C. To be noted: protein: recombinant; tags: N-terminal HIS; C-terminal GTGSGA-3xFLAG; label: 5' FAM; parallel G4.

Data set [3] concerns the target T1, G4P. As to the kind of experiment: EMSA; K+; two distinct Kd values, numbers only in figure; EMSA: 20 mM Tris-HCl pH 7.4, 75 mM KCl, 1 mM EDTA, 0.4 mg/ml BSA, 10 nM DNA, 4 C (or 37 C), 1 h; dsDNA with 30% PEG 200; pull-down: 20 mM Tris-HCl pH 7.4, 150 mM KCl, 1 mM EDTA, 0.5% Triton X-100, 4 C. As to conditions: protein: recombinant; tags: N-terminal HIS; C-terminal GTGSGA-3xFLAG; label: 5' FAM; parallel broken-strand G4.

In the case of GGGGCCGGGGCCGGGGCCGGGGCC (structured_DNA) [C9orf72], in the data set with G4P [1] (antiparallel G4, hairpin in equilibrium), the binding result is on record as “binds”. For TTCGGGCGGGCGCGAGGGAGGGTTTT (structured_DNA) [c-KIT], the binding result with G4P [2] is “binds”.

AGGGCGGTGTGGGAAGAGGGAAGAGGGGGAGG (structured_DNA) [KRAS]: the binding result with G4P [2] is “binds”. On to AAGGGAGGGCGGCGGGGCAGGGA (structured_DNA) [PDGFR-beta], for which, in the data set with G4P [3], the binding result is listed as “binds”. With GGTTAGGGTTAGGGTTAGGGTTAGGGTTAG (structured_DNA) [Tel], the binding result in the data set with G4P [1] (mixed parallel/antiparallel G4) is “binds”.
